Our source for the cell killing of bovine small luteal cells after 22 hr (Trypan Blue exclusion) (fold vs hecate alone) and cpm displaced relative to native GnRH values is patent publication EP1878438A2.

The target of experiment [1] is LH receptors on bovine granulosa cells and bovine small luteal cells (bovine) (UniProt Q28005). In words: cell-based or functional assay.
Experiment [2] deals with T1, GnRH receptor of rat pituitary membranes (rat) (UniProt P30969).
T1 sequence (looked up): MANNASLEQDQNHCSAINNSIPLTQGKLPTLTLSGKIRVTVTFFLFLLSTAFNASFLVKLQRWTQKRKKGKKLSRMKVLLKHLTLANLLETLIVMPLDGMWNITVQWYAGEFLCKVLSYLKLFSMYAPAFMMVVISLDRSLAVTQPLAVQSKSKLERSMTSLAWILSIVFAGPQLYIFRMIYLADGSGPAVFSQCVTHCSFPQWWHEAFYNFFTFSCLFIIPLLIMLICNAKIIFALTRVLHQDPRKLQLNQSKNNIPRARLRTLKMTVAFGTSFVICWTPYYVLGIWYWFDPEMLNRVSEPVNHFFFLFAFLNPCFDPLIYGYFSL
In words: radioligand displacement on rat pituitary membranes, equimolar concentrations. (Loss of bound radioactivity is the signal in a displacement assay; it reports binding, not function.)

UniProt Q28005, sequence (Q28005 27-701): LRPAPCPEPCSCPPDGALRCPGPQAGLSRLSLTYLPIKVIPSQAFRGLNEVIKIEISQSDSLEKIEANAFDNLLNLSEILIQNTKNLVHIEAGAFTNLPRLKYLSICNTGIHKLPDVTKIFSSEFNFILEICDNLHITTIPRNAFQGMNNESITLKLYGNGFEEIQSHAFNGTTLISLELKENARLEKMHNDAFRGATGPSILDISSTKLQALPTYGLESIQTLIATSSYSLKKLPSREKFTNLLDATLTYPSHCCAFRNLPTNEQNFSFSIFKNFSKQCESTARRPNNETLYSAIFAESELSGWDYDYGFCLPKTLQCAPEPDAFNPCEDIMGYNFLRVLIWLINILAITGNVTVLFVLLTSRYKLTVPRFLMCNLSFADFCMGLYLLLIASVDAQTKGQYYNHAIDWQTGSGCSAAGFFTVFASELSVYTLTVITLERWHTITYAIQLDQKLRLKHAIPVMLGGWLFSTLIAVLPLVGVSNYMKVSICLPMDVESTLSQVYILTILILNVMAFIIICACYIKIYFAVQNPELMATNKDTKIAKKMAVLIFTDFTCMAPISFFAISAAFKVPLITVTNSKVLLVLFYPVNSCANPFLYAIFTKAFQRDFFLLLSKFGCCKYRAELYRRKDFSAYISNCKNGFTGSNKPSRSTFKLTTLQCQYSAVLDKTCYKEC

In the case of hecate-bLH conjugate (peptide), the cell killing of bovine small luteal cells after 22 hr (Trypan Blue exclusion) (fold vs hecate alone) in experiment [1] amounted to 2. In experiment [2], D-Lys6GnRH (peptide) came in with a cpm displaced relative to native GnRH of 187%.
